Tested on: osteoclastic cells
Assay: Release of soluble EfnB2 into CM by osteoclastic cells (Western blots)
Assay type: cell-based
Source text: Regarding the EfnB2, EfnB2 on the plasma membrane of osteoclasts binds the EphB4 receptor on the cell surface of nearby osteoprogenitors to trigger the EfnB2-EphB4 bidirectional signaling, which on the one hand suppresses osteoclastic resorption through activation of the reverse signaling of EfnB2 in osteoclasts and on the other hand upregulates the EphB4 forward signaling in osteoblasts to stimulate osteoblast maturation and activity. However, this bidirectional signaling mechanism requires direct cell-cell contact between osteoclasts and osteoprogenitors. Given the fact that very few osteoblasts or progenitors are present at the remodeling site that could make direct contact with the resorbing osteoclast, this cell-cell contact-dependent bidirectional mechanism is unlikely a major mechanism for the coupled bone formation under normal situations. It also could not be responsible for the soluble osteoanabolic activity of osteoclasts. […] Treatment with EfnA4-fc or PTH increased its releases each by ~75% and the large majority of the released EfnB2 was associated with the MV fraction. As an initial test of the possibility that EfnB2 is a candidate for an osteoanabolic component, it was tested whether the osteogenic activity of CM or that of MV could be blocked by pretreatment with anti-EfnB2 antibody. […]

B1: PTH: used to increase bone turnover / stimulate bone remodeling (protein, UniProt P01270 32-115, looked up)
Parathyroid hormone: SVSEIQLMHNLGKHLNSMERVEWLRKKLQDVHNFVALGAPLAPRDAGSQRPRKKEDNVLVESHEKSLGEADKADVNVLTKAKSQ
modifications: Parathyroid hormone
notes: used to increase bone turnover / stimulate bone remodeling
  increase of release of soluble EfnB2: ~ 75%

From patent US20260263364A1, “OSTEOCLAST-DERIVED MICROVESICLES AND METHODS OF PROMOTING BONE REGENERATION” (The United States Government as represented by the …, priority 2023, published 2026)
